Laboratory results reported in patent US11160876B2, “Methods and compositions for targeting t-cell cancers” (Mayo Foundation for Medical Education and Research, priority 2016, dated 2021).

Target: Abraxane (Homo sapiens, UniProt P02768)
Experiment: Bio-layer interferometry (BLItz) binding affinity of OKT3 and Abraxane
Description: To understand the characteristics of the nanoparticles formed when binding OKT3 to Abraxane, the binding affinity of the complex was determined by a Bio-layer interferometry (BLItz) assay, which is an optical technology that uses interference of white light reflection to determine binding affinities of 2 proteins
In a BLItz assay, if the 2 proteins bind, the reflected light changes wavelength in a manner that correlates to the binding affinity of the 2 proteins. Here biotinylated OKT3 at 100 ug/ml was immobilized on a streptavidin-containing probe and exposed to Abraxane at 2 concentrations-500 ug/ml (Run 2) and 1000 ug/ml (Run 3)
In the case of the anti-human CD3 antibody (OKT3) and Abraxane, biotinylated OKT3 at 100 ug/ml was immobilized on a streptavidin-containing probe. The OKT3 bearing probe was then immersed in Abraxane at 2 concentrations, 500 ug/ml and 1000 ug/ml (Run 2 and Run 3). […] The association and dissociation constants on the proteins were calculated by the BLItz software.

binding of Abraxane to immobilized OKT3 (OKT3 bearing probe immersed in Abraxane at 500 ug/ml and 1000 ug/ml (Run 2 and Run 3)): concentration dependent manner | Kd (biotinylated OKT3 at 100 ug/ml immobilized on streptavidin-containing probe, Abraxane at 500 ug/ml and 1000 ug/ml, calculated by BLItz software, read-out: dissociation constant (Kd) of OKT3 and Abraxane): 2.25 nM
Substance: muromonab-CD3 [OKT3]
